Consider 1 molecule from article PMC8041205 (2021).

The assay deals with BSA. Description: ITC.

B1: UBE2D1 (R&D) (enzyme)
chain: not shown
In the case of B1, the Kd (as a rule, the constant that tells how readily two partners part at equilibrium) is above 10 mM.
